# From paper PMC2726289
# Biological target: peptide from Dynamin1 proline-rich domain
# Test: not stated; monomeric GRAF1 SH3 domain with a peptide from the Dynamin1 proline-rich domain; method in Figure S2D or the supplement, not shown
binder,measurement,value
Monomeric GRAF1 SH3 domain (domain or fragment) TPFRKAKALYACKAEHDSELSFTAGTVFDNVHPSQEPGWLEGTLNGKTGLIPENYVEFL,Kd,106 µM
